Positions count from the first letter of the chain named.
B1: PRT-414 (protein)
chain: MTITSVWTKGVTPPTPEDFRYNNEDVLHAPYVANQGWYDITKTFDGKDNLLCGAATAGNMLHWWFDQNKEEIERYLKKHPEKQKIIFGNQELFDVKAAIDTKDSQTNSKLFNYFRDKAFPNLSARQLGVMPDLVLDMFINGYYLNLGKTQSTDVNRPYQDKDKRGGIFDAVFTRGDQTTLLTARHDLKNKGLNEISDLIKQELTEGKALALSHTYANVRINHVINLWGADFDAEGNLIAIYVTDSDANASIGMKKYFVGVNANGKVAISAKKIEGDNIGAQVLGLFTLSTGQDIWQKLS
B2: PRT-423 (protein)
chain: B1 chain with G88N, V260R
B3: PRT-422 (protein)
chain: B1 chain with G88N, A249P
B4: PRT-415 (protein)
chain: B1 chain with G88N, R115L
B5: PRT-398 (protein)
chain: MVTSVWTKGVTPPADFTQGEDVFHAPYVANQGWYDITKTFNGKDDLLCGAATAGNMLHWWFDQNKEYIEAYLKKHPEKQKIMFGDQELLDVRKAINTKGSQKNSELFNYFRDKAFPNLSARRLGVMPDLVLDMFINGYYLNVTKTQTTDVNRTYQEKDKRGGIFDAVFTRGDQSKLLTSRHDFKEKGLKEISDLIKQELTEGKALGLSHTYANVRINHVINLWGADFDSDGNLKAIYVTDSDSNASIGMKKYDVGVNSAGKVAISAKEIKEDNIGAQVLGLFTLSTGQDIWNQTN
B6: PRT-406 (protein)
chain: B5 chain with G42R, D253F
B7: PRT-399 (protein)
chain: B5 chain with D253V
B8: PRT-407 (protein)
chain: B5 chain with M82I, D253F
B9: PRT-383 (protein)
chain: MVTSVWTKGVTPPTNFTYGEDVLHAPYVANQGWYDITKTFNGKDDLLCGAATAGNMLHWWFDQNKEQIENYLKKHPEKQKINFNGEQMFDVKEAIDTKDSQLDSKLFDYFKEKAFPYLSTKHLGVFPDHVIDMFINGYRLSLTNHGPTPVKRGSKDPRGGIFDAVFTRGDQSKLLTNRHDFKEKTLKEISDLIKQELTEGKALGISHTYANVRINHVINLWGADFDAEGNLEAIYVTDSDSNASIGMKKYFVGVNSNGKVAISAKEIEEDNIGAQVLGLFTLSTGQDIWNQTN
B10: PRT-384 (protein)
chain: B9 chain with D108E, Y117N
B11: PRT-392 (protein)
chain: B9 chain with D108E, D170V
B12: PRT-391 (protein)
chain: B9 chain with D108E, P157K
B13: PRT-437 (protein)
chain: MSQTEDSESLQRLRDIEDFQAEKKKQNVVYTKWLDGVDVKDHDFRKIVDGNEAYYATPLLNGRGFYDINKDFNRDSDKCAAAVAANMFHYWLDRNRDNVDRFLRQNPEKHGIIELPDGQLKLSDFLNTYESDDGYRDKSKLFDFISNNFNGPVWTDKLLDNYINGYAYNYKYGRTIEDPTKNTSKINFFKEVFNEKILTNNHSIRNQNEFSVLLSEALYTGKAIGLSYGPAGLRHSLGHIISVWGADLDADGNVVAIYVTDSDDKKLTIGDERVGLKRYKISTDDEGRLRLTAYEETHNTGGQIRGLWTLDTGKQAWADYFDKTEQTGTDQAEQ
B14: PRT-439 (protein)
chain: B13 chain with E52I, T175L

Target: pooled human IgG (human IgG1, 2, 3 and 4)

Row | Protein | Enzyme Activity Endpoint Assay (purified): Fab′2 [ng/µL] | Enzyme Activity Endpoint Assay (purified): Fc [ng/µL] | Enzyme Activity Endpoint Assay (purified): IgG [ng/µL] | Enzyme Activity Endpoint Assay (purified): scIgG [ng/µL] | Enzyme Activity Endpoint Assay: Fab′2 [ng/µL] | Enzyme Activity Endpoint Assay: Fc [ng/µL] | Enzyme Activity Endpoint Assay: IgG [ng/µL] | Enzyme Activity Endpoint Assay: scIgG [ng/µL]
1 | B1 | 496 | 341 | 77 | 129 | 496 | 341 | 77 | 129
2 | B2 | 398 | 0 | 1660 | 0 | 398 | 0 | 1660 | 0
3 | B3 | 494 | 348 | 69 | 136 | 494 | 348 | 69 | 136
4 | B4 | 46 | 225 | 164 | 630 | 46 | 225 | 164 | 630
5 | B5 | 555 | 370 | 0 | 196 | 555 | 370 | 0 | 196
6 | B6 | 435 | 299 | 135 | 108 | 435 | 299 | 135 | 108
7 | B7 | 0 | 0 | 1580 | 0 | 0 | 0 | 1580 | 0
8 | B8 | 209 | 277 | 90 | 396 | 209 | 277 | 90 | 396
9 | B9 | 581 | 379 | 0 | 230 | 581 | 379 | 0 | 230
10 | B10 | 365 | 0 | 1510 | 0 | 365 | 0 | 1510 | 0
11 | B11 | 513 | 354 | 0 | 196 | 513 | 354 | 0 | 196
12 | B12 | 498 | 361 | 29 | 192 | 498 | 361 | 29 | 192
13 | B13 | 445 | 306 | 0 | 263 | 445 | 306 | 0 | 263
14 | B14 | 179 | 191 | 325 | 528 | 179 | 191 | 325 | 528

— patent publication US20250027068
